From IntAct's records for PubMed 17350572

B1: Gag polyprotein (Equine infectious anemia virus (isolate 1369) (EIAV)), P69730 (parent)
chain: MGDPLTWSKALKKLEKVTVQGSQKLTTGNCNWALSLVDLFHDTNFVKEKDWQLRDVIPLLEDVTQTLSGQEREAFERTWWAISAVKMGLQINNVVDGKASFQLLRAKYEKKTANKKQSEPSEEYPIMIDGAGNRNFRPLTPRGYTTWVNTIQTNGLLNEASQNLFGILSVDCTSEEMNAFLDVVPGQAGQKQILLDAIDKIADDWDNRHPLPNAPLVAPPQGPIPMTARFIRGLGVPRERQMEPAFDQFRQTYRQWIIEAMSEGIKVMIGKPKAQNIRQGAKEPYPEFVDRLLSQIKSEGHPQEISKFLTDTLTIQNANEECRNAMRHLRPEDTLEEKMYACRDIGTTKQKMMLLAKALQTGLAGPFKGGALKGGPLKAAQTCYNCGKPGHLSSQCRAPKVCFKCKQPGHFSKQCRSVPKNGKQGAQGRPQKQTFPIQQKSQHNKSVVQETPQTQNLYPDLSEIKKEYNVKEKDQVEDLNLDSLWE
B2: Programmed cell death 6-interacting protein (Homo sapiens), Q8WUM4 (parent)
chain: MATFISVQLKKTSEVDLAKPLVKFIQQTYPSGGEEQAQYCRAAEELSKLRRAAVGRPLDKHEGALETLLRYYDQICSIEPKFPFSENQICLTFTWKDAFDKGSLFGGSVKLALASLGYEKSCVLFNCAALASQIAAEQNLDNDEGLKIAAKHYQFASGAFLHIKETVLSALSREPTVDISPDTVGTLSLIMLAQAQEVFFLKATRDKMKDAIIAKLANQAADYFGDAFKQCQYKDTLPKEVFPVLAAKHCIMQANAEYHQSILAKQQKKFGEEIARLQHAAELIKTVASRYDEYVNVKDFSDKINRALAAAKKDNDFIYHDRVPDLKDLDPIGKATLVKSTPVNVPISQKFTDLFEKMVPVSVQQSLAAYNQRKADLVNRSIAQMREATTLANGVLASLNLPAAIEDVSGDTVPQSILTKSRSVIEQGGIQTVDQLIKELPELLQRNREILDESLRLLDEEEATDNDLRAKFKERWQRTPSNELYKPLRAEGTNFRTVLDKAVQADGQVKECYQSHRDTIVLLCKPEPELNAAIPSANPAKTMQGSEVVNVLKSLLSNLDEVKKEREGLENDLKSVNFDMTSKFLTALAQDGVINEEALSVTELDRVYGGLTTKVQESLKKQEGLLKNIQVSHQEFSKMKQSNNEANLREEVLKNLATAYDNFVELVANLKEGTKFYNELTEILVRFQNKCSDIVFARKTERDELLKDLQQSIAREPSAPSIPTPAYQSSPAGGHAPTPPTPAPRTMPPTKPQPPARPPPPVLPANRAPSATAPSPVGAGTAAPAPSQTPGSAPPPQAQGPPYPTYPGYPGYCQMPMPMGYNPYAYGQYNMPYPPVYHQSPGQAPYPGPQQPSYPFPQPPQQSYYPQQ
B3: Programmed cell death 6-interacting protein (Homo sapiens), Q8WUM4 (parent)
chain: B2 chain
partner: B1 chain
B4: Programmed cell death 6-interacting protein (Homo sapiens), Q8WUM4 (parent)
chain: B2 chain
partner: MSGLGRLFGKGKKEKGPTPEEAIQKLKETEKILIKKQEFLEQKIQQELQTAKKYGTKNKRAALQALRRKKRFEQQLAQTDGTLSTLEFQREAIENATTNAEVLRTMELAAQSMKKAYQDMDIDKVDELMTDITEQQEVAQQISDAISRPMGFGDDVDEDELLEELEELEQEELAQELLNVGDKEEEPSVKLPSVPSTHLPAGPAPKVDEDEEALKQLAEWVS

Variants of: B1
Details: with pdc6i_human PDCD6IP

| Variant | effect of a mutation on the interaction |
| --- | --- |
| Y458S;P459R | decreasing interaction |

Variants of: B2
Details: with gag_hv1b1 gag

| Variant | effect of a mutation on the interaction |
| --- | --- |
| V498D | disrupting interaction |
| I683D | decreasing interaction |
| F676D | disrupting interaction |

Variants of: B2
Details: with sh3g2_human SH3GL2, Q99962
sh3g2_human SH3GL2, Q99962, sequence (Q99962 whole entry): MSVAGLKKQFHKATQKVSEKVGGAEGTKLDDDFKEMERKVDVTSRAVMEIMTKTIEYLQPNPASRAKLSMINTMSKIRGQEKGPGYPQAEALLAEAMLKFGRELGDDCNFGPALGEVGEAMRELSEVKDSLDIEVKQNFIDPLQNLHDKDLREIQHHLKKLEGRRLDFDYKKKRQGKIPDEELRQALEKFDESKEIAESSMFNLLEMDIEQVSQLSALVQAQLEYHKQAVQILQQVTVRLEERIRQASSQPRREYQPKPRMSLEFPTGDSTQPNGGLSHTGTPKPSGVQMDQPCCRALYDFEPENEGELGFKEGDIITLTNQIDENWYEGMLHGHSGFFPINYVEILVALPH

| Variant | effect of a mutation on the interaction |
| --- | --- |
| R757A;P758A | decreasing interaction |

Variants of: B2
Details: with ts101_human TSG101, Q99816
ts101_human TSG101, Q99816, sequence (Q99816 whole entry): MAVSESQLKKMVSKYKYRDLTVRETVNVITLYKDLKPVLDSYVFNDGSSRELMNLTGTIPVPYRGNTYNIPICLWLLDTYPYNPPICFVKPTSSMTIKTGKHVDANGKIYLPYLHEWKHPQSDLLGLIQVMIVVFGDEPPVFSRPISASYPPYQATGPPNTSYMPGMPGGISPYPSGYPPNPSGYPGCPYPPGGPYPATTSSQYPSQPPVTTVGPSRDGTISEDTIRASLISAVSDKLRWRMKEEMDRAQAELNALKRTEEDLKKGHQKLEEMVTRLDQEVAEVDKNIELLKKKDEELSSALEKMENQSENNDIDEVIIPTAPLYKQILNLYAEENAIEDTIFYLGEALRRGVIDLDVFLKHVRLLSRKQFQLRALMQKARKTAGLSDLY

| Variant | effect of a mutation on the interaction |
| --- | --- |
| P720L | disrupting interaction |

Variants of: B3
Details: with gag_eiav9 gag

| Variant | effect of a mutation on the interaction |
| --- | --- |
| V498D | decreasing interaction |
| I683D | decreasing interaction |
| F676D | disrupting interaction |

Variants of: B4
Details: with chm4a_human CHMP4A

| Variant | effect of a mutation on the interaction |
| --- | --- |
| I212D | disrupting interaction |
